Measured values: patent publication US20100196390A1 (RINAT NEUROSCIENCE, published 2010)
Residue numbers refer to the chain shown, from its start.

B1: 10-D11 (Fab, V domains shown)
VH: QVQLVQSGAEVKKPGASVKVSCKASGYTFTNYDIIWVRQAPGQGLEWMGYINPYNGRREYNEKFKGRVTMTRDTSTSTVYMELSSLRSEDTAVYYCARLLKYRRFRYYAIDYWGQGTTVTVSS
VL: DIQMTQSPSSLSASVGDRVTITCRASENVYRNLAWYQQKPGKAPKLLIYAASNLQSGVPSRFSGSGSGTDFTFTISSLQPEDIATYYCQHFWYSPFTFGQGTKLEIK
notes: Fab
B2: 10-E10 (Fab, V domains shown)
VH: B1 VH with G56D, R57G, E59K, Y60E
VL: B1 VL with R31S, Y93G
notes: Fab
B3: 10-F7 (Fab, V domains shown)
VH: B1 VH
VL: B1 VL with R31S, N32H, W92V
notes: Fab
B4: 10-F10 (Fab, V domains shown)
VH: B1 VH with G56D, R57G, E59K, Y60E
VL: B1 VL with R31L, Y93G
notes: Fab
B5: 10-F12 (Fab, V domains shown)
VH: B1 VH
VL: B1 VL with Y93G
notes: Fab
B6: 10-G2 (Fab, V domains shown)
VH: B1 VH
VL: B1 VL with N28A, R31S, Y93G
notes: Fab
B7: 10-G3 (Fab, V domains shown)
VH: B1 VH with G56E, R58T
VL: B1 VL with A50I, W92V
notes: Fab
B8: 11-B9 (Fab, V domains shown)
VH: B1 VH
VL: B1 VL with E27T, Y93G
notes: Fab
B9: 11-B11 (Fab, V domains shown)
VH: B1 VH
VL: B1 VL with N28P, R31S, Y93G
notes: Fab
B10: 11-C6 (Fab, V domains shown)
VH: B1 VH
VL: B1 VL with E27S, R31S, F71Y, Y93G
notes: Fab
B11: 11-C7 (Fab, V domains shown)
VH: B1 VH with G56R, R58I
VL: B1 VL with R31S, N32H, Y93G
notes: Fab
B12: 11-D7 (Fab, V domains shown)
VH: B1 VH
VL: B1 VL with Y93G
notes: Fab
B13: 11-D8 (Fab, V domains shown)
VH: B1 VH
VL: B1 VL with E27T, R31S, Y93G
notes: Fab
B14: 11-F9 (Fab, V domains shown)
VH: B1 VH with G56D, R57G, E59K, Y60E
VL: B1 VL
notes: Fab
B15: 11-G2 (Fab, V domains shown)
VH: B1 VH with G56D, R57G, E59K, Y60E
VL: B1 VL with R31S, Y93D
notes: Fab
B16: 11-G5 (Fab, V domains shown)
VH: B1 VH
VL: B1 VL with R31Y
notes: Fab
B17: 11-G10 (Fab, V domains shown)
VH: B1 VH
VL: B1 VL with R31S, Y93G
notes: Fab
B18: 12-A8 (Fab, V domains shown)
VH: B1 VH with G56D, R57G, E59K, Y60E
VL: B1 VL with R31S, Y93G
notes: Fab
B19: 12-B5 (Fab, V domains shown)
VH: B1 VH with G56R, R58I
VL: B1 VL with R31S, N32H, F71Y, Y93G
notes: Fab
B20: 12-C8 (Fab, V domains shown)
VH: B1 VH
VL: B1 VL with E27K, R31S, Y93G
notes: Fab
B21: 12-C9 (Fab, V domains shown)
VH: B1 VH with R58T
VL: B1 VL with E27K, R31S, H90Q
notes: Fab
B22: 12-D8 (Fab, V domains shown)
VH: B1 VH
VL: B1 VL with R31S, L33T, F71Y, Y93G
notes: Fab
B23: 12-E5 (Fab, V domains shown)
VH: B1 VH
VL: B1 VL with N28P, R31S, Y93G
notes: Fab
B24: 12-E9 (Fab, V domains shown)
VH: B1 VH with G56D, R57G, R58T, E59K, G66Y
VL: B1 VL with N28S, R31N, Y93G
notes: Fab
B25: 12-E11 (Fab, V domains shown)
VH: B1 VH
VL: B1 VL with N28P, R31N, F71Y
notes: Fab
B26: 12-H6 (Fab, V domains shown)
VH: B1 VH with G56R
VL: B1 VL with F71Y, Y93G
notes: Fab
B27: 13-A12 (Fab, V domains shown)
VH: B1 VH with G56D, R57G, E59K, Y60E
VL: B1 VL with F71Y
notes: Fab
B28: 13-B2 (Fab, V domains shown)
VH: B1 VH
VL: B1 VL with E27K, N28P, R31S, F71Y, Y93G
notes: Fab
B29: 13-B3 (Fab, V domains shown)
VH: B1 VH
VL: B1 VL with R31N, F71Y, Y93G
notes: Fab
B30: 13-B4 (Fab, V domains shown)
VH: B1 VH with G56D, R57G, E59K, Y60E
VL: B1 VL with R31M, F71Y
notes: Fab
B31: 13-C5 (Fab, V domains shown)
VH: B1 VH
VL: B1 VL with N28P, R31S, F71Y, Y93G
notes: Fab
B32: 13-C6 (Fab, V domains shown)
VH: B1 VH
VL: B1 VL with N28P, R31S, L33V, Y93G
notes: Fab
B33: 13-C7 (Fab, V domains shown)
VH: B1 VH
VL: B1 VL with N28P, R31S, F71Y
notes: Fab
B34: 13-C11 (Fab, V domains shown)
VH: B1 VH
VL: B1 VL with R31S, N32H, F71Y, Y93G
notes: Fab
B35: 13-C12 (Fab, V domains shown)
VH: B1 VH
VL: B1 VL with F71Y, W92V
notes: Fab
B36: 13-D5 (Fab, V domains shown)
VH: B1 VH
VL: B1 VL with Y30T, R31S, F71Y, Y93G
notes: Fab
B37: 13-F12 (Fab, V domains shown)
VH: B1 VH
VL: B1 VL with F71Y, Y93G
notes: Fab
B38: 13-H3 (Fab, V domains shown)
VH: B1 VH with G56D, R57G, E59K, Y60E
VL: B1 VL with R31S, F71Y, Y93G
notes: Fab
B39: 13-H6 (Fab, V domains shown)
VH: B1 VH with G56D, R57G, E59K, Y60E
VL: B1 VL with R31S, N32H, F71Y, W92V
notes: Fab
B40: 14-A6 (Fab, V domains shown)
VH: B1 VH with G56R
VL: B1 VL with R24H, R31S, Y93G
notes: Fab
B41: 14-B1 (Fab, V domains shown)
VH: B1 VH with G56D, R57G, E59K, Y60E
VL: B1 VL with N28P, R31S, F71Y, Y93G
notes: Fab
B42: 15-G6 (Fab, V domains shown)
VH: B1 VH with G56D, R57G, R58T, E59K, R106K
VL: B1 VL with A25T, R31S, H90Q
notes: Fab
B43: 15-H1 (Fab, V domains shown)
VH: B1 VH with G56D, R57G, R58T, E59K, R103A, R104C, Y107E, Y108E
VL: B1 VL with R31S, Y93E
notes: Fab
B44: 16-A6 (Fab, V domains shown)
VH: B1 VH with G56D, R57G, R58T, E59K
VL: B1 VL with A25T, R31S, Q55A, S56D, Y93A
notes: Fab
B45: 16-A10 (Fab, V domains shown)
VH: B1 VH with G56D, R57G, R58T, E59K
VL: B1 VL with A25T, R31S, F96W
notes: Fab
B46: 16-B7 (Fab, V domains shown)
VH: B1 VH with G56D, R57G, R58T, E59K
VL: B1 VL with R31S, Q55A, S56D, Y93A
notes: Fab
B47: 16-C1 (Fab, V domains shown)
VH: B1 VH with G56D, R57G, R58T, E59K, R106K
VL: B1 VL with R31S, F96W
notes: Fab

What follows are binders tested against TrkB (Homo sapiens (Human), UniProt Q16620 32-430) (assay: koff of Fab at 25 C; T1/2=Log2/koff).
TrkB, sequence (Q16620 32-430 limits assumed): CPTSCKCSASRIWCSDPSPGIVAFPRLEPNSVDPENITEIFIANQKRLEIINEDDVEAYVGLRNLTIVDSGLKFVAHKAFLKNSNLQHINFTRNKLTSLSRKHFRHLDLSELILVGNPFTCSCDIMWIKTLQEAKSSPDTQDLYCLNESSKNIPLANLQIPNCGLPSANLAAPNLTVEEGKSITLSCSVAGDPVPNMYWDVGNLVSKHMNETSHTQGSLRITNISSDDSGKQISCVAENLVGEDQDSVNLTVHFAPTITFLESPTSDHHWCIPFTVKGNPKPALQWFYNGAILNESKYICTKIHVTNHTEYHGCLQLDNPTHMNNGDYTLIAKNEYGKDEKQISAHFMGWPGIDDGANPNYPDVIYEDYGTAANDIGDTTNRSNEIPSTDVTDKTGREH
Outline: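 Monovalent Fab fragments were tested at 25° C by surface plasmon resonance on a Biacore instrument, against TrkB extracellular-domain monomer amine-coupled to the chip at low capacity. Fabs were injected low to high as a 3-fold serial dilution from 100 nM for 84 sec, with a 10 minute dissociation after the top sample. The dissociation half-life was calculated from koff, which was fitted to a Langmuir binding model in BIAevaluation. The formula used was T1/2 = Log 2/koff.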
Binder B1 has a T1/2 of 4.2 min.
B2 was tested, and the T1/2 was 2.7 min.
B3 gave a T1/2 of 4.9 min.
With B4 the T1/2 was 4.1 min.
With B5 the T1/2 was 5.7 min.
In the case of B6, the T1/2 is reported as 5.2 min.
In the case of B7, the T1/2 is reported as 4.8 min.
B8 was tested, and the T1/2 was 4.9 min.
With B9 the T1/2 was 5.5 min.
With B10 the T1/2 was 10.8 min.
Work on B11 yielded a T1/2 of 4.9 min.
B12 was tested, and the T1/2 was 4.1 min.
B13 showed a T1/2 of 2.5 min.
Work on B14 yielded a T1/2 of 6.2 min.
Work on B15 yielded a T1/2 of 1.5 min.
Work on B16 yielded a T1/2 of 5.9 min.
Binder B17 has a T1/2 of 3 min.
B18 was tested, and the T1/2 was 3.3 min.
With B19 the T1/2 was 10 min.
B20 gave a T1/2 of 8 min.
Binder B21 has a T1/2 of 0.8 min.
Binder B22 has a T1/2 of 10 min.
For B23, the T1/2 was 7.5 min.
B24 was tested, and the T1/2 was 3.5 min.
Binder B25 has a T1/2 of 11 min.
With B26 the T1/2 was 12 min.
B27 showed a T1/2 of 13 min.
B28 gave a T1/2 of 13 min.
In the case of B29, the T1/2 is reported as 13 min.
B30 gave a T1/2 of 13 min.
Work on B31 yielded a T1/2 of 13 min.
In the case of B32, the T1/2 is reported as 4.8 min.
Binder B33 has a T1/2 of 13 min.
With B34 the T1/2 was 13 min.
B35 was tested, and the T1/2 was 13 min.
B36 showed a T1/2 of 13 min.
Work on B37 yielded a T1/2 of 13 min.
With B38 the T1/2 was 13 min.
Binder B39 has a T1/2 of 13 min.
In the case of B40, the T1/2 is reported as 2.8 min.
In the case of B41, the T1/2 is reported as 13 min.
For B42, the T1/2 was 1.8 min.
B43 showed a T1/2 of 2.1 min.
B44 was tested, and the T1/2 was 1 min.
B45 showed a T1/2 of 6 min.
B46 was tested, and the T1/2 was 5 min.
In the case of B47, the T1/2 is reported as 6 min.
